Source: US20230203178A1 (SICHUAN KELUN BIOTECH BIOPHARMACEUTICAL, published 2023)

T1: BCMA expressed on target cells (CHO-K1-BCMA recombinant cell line; MM.1S; RPMI8226) (human, UniProt Q02223 1-184)
T1 sequence (looked up): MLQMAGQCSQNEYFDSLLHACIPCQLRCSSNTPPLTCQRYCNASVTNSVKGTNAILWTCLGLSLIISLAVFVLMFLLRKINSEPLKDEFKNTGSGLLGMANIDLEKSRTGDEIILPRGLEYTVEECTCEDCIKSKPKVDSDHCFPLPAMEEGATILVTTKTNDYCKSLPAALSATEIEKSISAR

T2: human BCMA (antigen) (human, UniProt Q02223 1-54, limits assumed)
T2 construct: Antigen coupled to the CM5 chip in SPR; also called B-cell maturation antigen; TNFRF17
T2 sequence (looked up): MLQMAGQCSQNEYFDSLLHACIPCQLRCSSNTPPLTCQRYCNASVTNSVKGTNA

T3: CD19 expressed on Nalm6 cells (UniProt P15391 20-556, limits assumed)
T3 sequence (looked up): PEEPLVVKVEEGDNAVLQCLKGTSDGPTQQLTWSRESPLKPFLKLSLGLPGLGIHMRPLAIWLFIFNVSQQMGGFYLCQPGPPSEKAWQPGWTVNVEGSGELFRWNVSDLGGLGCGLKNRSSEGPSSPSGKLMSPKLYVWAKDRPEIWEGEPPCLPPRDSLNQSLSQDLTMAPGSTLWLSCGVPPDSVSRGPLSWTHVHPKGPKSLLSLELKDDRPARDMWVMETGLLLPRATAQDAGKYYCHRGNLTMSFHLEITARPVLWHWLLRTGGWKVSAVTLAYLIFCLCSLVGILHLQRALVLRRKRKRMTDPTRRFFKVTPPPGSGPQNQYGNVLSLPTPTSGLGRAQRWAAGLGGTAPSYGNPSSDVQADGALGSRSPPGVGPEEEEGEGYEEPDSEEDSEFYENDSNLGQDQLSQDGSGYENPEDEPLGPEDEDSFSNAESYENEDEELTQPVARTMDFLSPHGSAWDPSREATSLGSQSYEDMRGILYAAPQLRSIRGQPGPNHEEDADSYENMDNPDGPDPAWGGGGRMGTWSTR

T4: human CD19 (antigen) (human, UniProt P15391 20-291, limits assumed)
T4 sequence (looked up): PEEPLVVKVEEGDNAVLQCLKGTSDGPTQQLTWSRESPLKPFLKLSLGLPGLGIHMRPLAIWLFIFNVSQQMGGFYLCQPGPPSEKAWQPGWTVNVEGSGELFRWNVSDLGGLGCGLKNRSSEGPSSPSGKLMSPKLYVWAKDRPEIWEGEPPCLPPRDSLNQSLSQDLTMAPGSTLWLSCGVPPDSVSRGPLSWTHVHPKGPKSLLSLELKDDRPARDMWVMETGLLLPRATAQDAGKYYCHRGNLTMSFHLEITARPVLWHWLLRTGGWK

B1: TanCAR 06 (other)
chain: QVTLRESGPALVKPTQTLTLTCTFSGVSLPDYGVSWIRQPPGKALEWLAVIWGSETTYYNSALKSRLTISKDTSKNQVVLTMTNMDPVDTATYYCAKHYYYGGSYAMDYWGQGTTVTVSSGGGGSDIVMTQSPLSLPVTPGEPASISCRSSQSLVHSNGNTFLHWYLQKPGQSPQLLIYKVSNRFSGVPDRFSGSGSGTDFTLKISRVEAEDVGVYYCMQSTHVLTFGGGTKLEIKRAGGGGSGGGGSGGGGSGGGGSQVQLVQSGAEVKKPGASVKVSCKASGYTFTDYLMHWVRQAPGQGLEWMGWINTETGEPTYADDFKGRVTMTRDTSTSTVYMELSSLRSEDTAVYYCAPSLYYGYSWFTYWGQGTLVTVSGGGGSEIVLTQSPATLSLSPGERATLSCRASQDISKYLNWYQQKPGQAPRLLIYHTSRLHSGIPDRFSGSGSGTDFTLTISRLEPEDIAVYYCQQGNTLPYTFGQGTKLEITTTPAPRPPTPAPTIASQPLSLRPEACRPAAGGAVHTRGLDFACDIYIWAPLAGTCGVLLLSLVITLYCKRGRKKLLYIFKQPFMRPVQTTQEEDGCSCRFPEEEEGGCELRVKFSRSADAPAYKQGQNQLYNELNLGRREEYDVLDKRRGRDPEMGGKPRRKNPQEGLYNELQKDKMAEAYSEIGMKGERRRGKGHDGLYQGLSTATKDTYDALHMQALPPR
notes: Tandem (looped) bispecific chimeric antigen receptor on human T cells; built here from its parts without the signal peptide; also called TanCAR 06 CAR-T
B2: TanCAR 08 (other)
chain: DIVMTQSPLSLPVTPGEPASISCRSSQSLVHSNGNTFLHWYLQKPGQSPQLLIYKVSNRFSGVPDRFSGSGSGTDFTLKISRVEAEDVGVYYCMQSTHVLTFGGGTKLEIKRAGGGGSGGGGSGGGGSQVQLVQSGAEVKKPGASVKVSCKASGYTFTDYLMHWVRQAPGQGLEWMGWINTETGEPTYADDFKGRVTMTRDTSTSTVYMELSSLRSEDTAVYYCAPSLYYGYSWFTYWGQGTLVTVSGGGGSGGGGSGGGGSGGGGSQVTLRESGPALVKPTQTLTLTCTFSGVSLPDYGVSWIRQPPGKALEWLAVIWGSETTYYNSALKSRLTISKDTSKNQVVLTMTNMDPVDTATYYCAKHYYYGGSYAMDYWGQGTTVTVSSGSTSGSGKPGSGEGSTKGEIVLTQSPATLSLSPGERATLSCRASQDISKYLNWYQQKPGQAPRLLIYHTSRLHSGIPDRFSGSGSGTDFTLTISRLEPEDIAVYYCQQGNTLPYTFGQGTKLEITTTPAPRPPTPAPTIASQPLSLRPEACRPAAGGAVHTRGLDFACDIYIWAPLAGTCGVLLLSLVITLYCKRGRKKLLYIFKQPFMRPVQTTQEEDGCSCRFPEEEEGGCELRVKFSRSADAPAYQQGQNQLYNELNLGRREEYDVLDKRRGRDPEMGGKPRRKNPQEGLYNELQKDKMAEAYSEIGMKGERRRGKGHDGLYQGLSTATKDTYDALHMQALPPR
notes: Tandem bispecific chimeric antigen receptor on human T cells; built here from its parts without the signal peptide; also called TanCAR 08 CAR-T
B3: TanCAR 10 (other)
chain: DIVMTQSPLSLPVTPGEPASISCRSSQSLVHSNGNTFLHWYLQKPGQSPQLLIYKVSNRFSGVPDRFSGSGSGTDFTLKISRVEAEDVGVYYCMQSTHVLTFGGGTKLEIKRAGGGGSGGGGSGGGGSQVQLVQSGAEVKKPGASVKVSCKASGYTFTDYLMHWVRQAPGQGLEWMGWINTETGEPTYADDFKGRVTMTRDTSTSTVYMELSSLRSEDTAVYYCAPSLYYGYSWFTYWGQGTLVTVSGGGGSGGGGSGGGGSGGGGSEVKLQESGPGLVAPSQSLSVTCTVSGVSLPDYGVSWIRQPPRKGLEWLGVIWGSETTYYNSALKSRLTIIKDNSKSQVFLKMNSLQTDDTAIYYCAKHYYYGGSYAMDYWGQGTSVTVSSGSTSGSGKPGSGEGSTKGDIQMTQTTSSLSASLGDRVTISCRASQDISKYLNWYQQKPDGTVKLLIYHTSRLHSGVPSRFSGSGSGTDYSLTISNLEQEDIATYFCQQGNTLPYTFGGGTKLEITESKYGPPCPPCPFWVLVVVGGVLACYSLLVTVAFIIFWVKRGRKKLLYIFKQPFMRPVQTTQEEDGCSCRFPEEEEGGCELRVKFSRSADAPAYKQGQNQLYNELNLGRREEYDVLDKRRGRDPEMGGKPRRKNPQEGLYNELQKDKMAEAYSEIGMKGERRRGKGHDGLYQGLSTATKDTYDALHMQALPPR
notes: Tandem bispecific chimeric antigen receptor on human T cells; built here from its parts without the signal peptide; also called TanCAR 10 CAR-T
B4: TanCAR 05 (other)
chain: DIVMTQSPLSLPVTPGEPASISCRSSQSLVHSNGNTFLHWYLQKPGQSPQLLIYKVSNRFSGVPDRFSGSGSGTDFTLKISRVEAEDVGVYYCMQSTHVLTFGGGTKLEIKRAGGGGSQVQLVQSGAEVKKPGASVKVSCKASGYTFTDYLMHWVRQAPGQGLEWMGWINTETGEPTYADDFKGRVTMTRDTSTSTVYMELSSLRSEDTAVYYCAPSLYYGYSWFTYWGQGTLVTVSGGGGSGGGGSGGGGSGGGGSQVTLRESGPALVKPTQTLTLTCTFSGVSLPDYGVSWIRQPPGKALEWLAVIWGSETTYYNSALKSRLTISKDTSKNQVVLTMTNMDPVDTATYYCAKHYYYGGSYAMDYWGQGTTVTVSSGGGGSEIVLTQSPATLSLSPGERATLSCRASQDISKYLNWYQQKPGQAPRLLIYHTSRLHSGIPDRFSGSGSGTDFTLTISRLEPEDIAVYYCQQGNTLPYTFGQGTKLEITTTPAPRPPTPAPTIASQPLSLRPEACRPAAGGAVHTRGLDFACDIYIWAPLAGTCGVLLLSLVITLYCKRGRKKLLYIFKQPFMRPVQTTQEEDGCSCRFPEEEEGGCELRVKFSRSADAPAYKQGQNQLYNELNLGRREEYDVLDKRRGRDPEMGGKPRRKNPQEGLYNELQKDKMAEAYSEIGMKGERRRGKGHDGLYQGLSTATKDTYDALHMQALPPR
notes: Tandem bispecific chimeric antigen receptor on human T cells; built here from its parts without the signal peptide; also called TanCAR 05 CAR-T
B5: TanCAR 02 (other)
chain: DIVMTQSPLSLPVTPGEPASISCRSSQSLVHSNGNTFLHWYLQKPGQSPQLLIYKVSNRFSGVPDRFSGSGSGTDFTLKISRVEAEDVGVYYCMQSTHVLTFGGGTKLEIKRAGGGGSGGGGSGGGGSQVQLVQSGAEVKKPGASVKVSCKASGYTFTDYLMHWVRQAPGQGLEWMGWINTETGEPTYADDFKGRVTMTRDTSTSTVYMELSSLRSEDTAVYYCAPSLYYGYSWFTYWGQGTLVTVSEAAAKEAAAKEAAAKQVTLRESGPALVKPTQTLTLTCTFSGVSLPDYGVSWIRQPPGKALEWLAVIWGSETTYYNSALKSRLTISKDTSKNQVVLTMTNMDPVDTATYYCAKHYYYGGSYAMDYWGQGTTVTVSSGGGGSGGGGSGGGGSEIVLTQSPATLSLSPGERATLSCRASQDISKYLNWYQQKPGQAPRLLIYHTSRLHSGIPDRFSGSGSGTDFTLTISRLEPEDIAVYYCQQGNTLPYTFGQGTKLEITTTPAPRPPTPAPTIASQPLSLRPEACRPAAGGAVHTRGLDFACDIYIWAPLAGTCGVLLLSLVITLYCKRGRKKLLYIFKQPFMRPVQTTQEEDGCSCRFPEEEEGGCELRVKFSRSADAPAYKQGQNQLYNELNLGRREEYDVLDKRRGRDPEMGGKPRRKNPQEGLYNELQKDKMAEAYSEIGMKGERRRGKGHDGLYQGLSTATKDTYDALHMQALPPR
notes: Tandem bispecific chimeric antigen receptor on human T cells; built here from its parts without the signal peptide; also called TanCAR 02 CAR-T

These binders were tested against T1, BCMA expressed on target cells … (assay: cell-based or functional assay).

Binder	lysis rate of CHO-K1-BCMA-luc cells by CAR-T cells, ratio 0.25:1 [%]	lysis rate of CHO-K1-BCMA-luc cells by CAR-T cells, ratio 0.5:1 [%]	lysis rate of CHO-K1-BCMA-luc cells by CAR-T cells, ratio 1:1 [%]	lysis rate of CHO-K1-BCMA-luc cells by CAR-T cells, ratio 2:1 [%]
B1	31.9	48.3	78.4	92.9
B2	12.3	38.4	65.9	
B3	17.1	36	57.9	
B4	26.6	39.2	58.2	79.8
B5	24	35.9	60.7	59

These binders were tested against T2, human BCMA (antigen) (assay: flow cytometry of lentivirus-transduced T cells labelled with antigen, 48 h after transduction; percent positive cells).
Text: (§1) The nucleic acid sequence encoding the CAR was expressed under the drive of a promoter, therefore the lentivirus-transfected T cells could be labeled with an antigen or anti-CD19 antibody and measured by flow cytometry, to reflect the expression level of the CAR on the surface of the T cells.

Binder	Positive rate of binding to BCMA [%]
B1	13.3
B2	28.5
B3	39.8
B4	14.2
B5	14.1

Each binder was assayed against T3, CD19 expressed on Nalm6 cells (assay: cell-based or functional assay).

Binder	lysis rate of Nalm6-luc cells by CAR-T cells, ratio 0.25:1 [%]	lysis rate of Nalm6-luc cells by CAR-T cells, ratio 0.5:1 [%]	lysis rate of Nalm6-luc cells by CAR-T cells, ratio 1:1 [%]	lysis rate of Nalm6-luc cells by CAR-T cells, ratio 2:1 [%]
B1	68.3	62.9	88.9	95.5
B2	65.9	83.8	92.2	
B3	59.6	77.4	91.5	
B4	25.8	42.4	67.7	91.2
B5	26.1	49.8	70.1	82.4

Each binder was assayed against T4, human CD19 (antigen) (assay: flow cytometry of lentivirus-transduced T cells labelled with antigen or anti-CD19 antibody, 48 h after transduction; percent positive cells).
Text: as §1

Binder	Positive rate of binding to CD19 [%]
B1	16.4
B2	24.4
B3	34.8
B4	11.8
B5	12.7
